The source of these data is patent US12415847B2, “ApoM-Fc fusion proteins for treating lung diseases” (Children's Medical Center Corporation, priority 2018, dated 2025).

For data set [1] the following is noted: free ApoM not associated with HDL; Faber et al. 2006; cited from earlier work.
Data set [2] concerns the target T1, S1P1 receptor (Homo sapiens, UniProt P21453).
T1 construct: expressed in transfected cells; host or cells: Human 293A cells, transient PEI transfection
The experiment in a line: Nanobit split luciferase assay, beta-arrestin coupling. Format: cell-based. The conditions noted are these: transfected 293A cells; 1000 nM-0.3 nM S1P. On the procedure: (§1) FIGS. 5A-5B. Nanobit analysis of Human ApoMFc-S1P, Mouse ApoMFc-S1P, or BSA-S1P (Positive Control). […] BSA-S1P is the well-established activator of the S1PR1 and it was tested whether Human ApoMFc-S1P, Mouse ApoMFc-S1P gave equivalent induction of receptor activation. Data are the means of triplicate wells with the baseline (pre-stimulation) signal subtracted from the final luciferase signal and graphs are expressed with standard deviation.
(§2) The S1P receptors are members of the G-protein coupled receptor (GPCR) superfamily. Receptor activation is characterized by immediate activation of a G-protein complex (alpha-beta-gamma) that activates multiple intracellular signaling pathways and then secondary activation of coupling to the protein beta-arrestin, which may cause receptor internalization and desensitization as well as activation of other intracellular signaling pathways. […]
(§3) There are two general forms of this assay. […] Upon activation of the GPCR, the G-Protein alpha-beta-gamma complex […] and Luciferase activity may be detected by measuring emitted light in the presence of luciferase substrate (luciferin). […] It is notable that G-Protein assay results in decreased relative fluorescence with increased receptor activation, while the Beta-arrestin coupling assay results in increased relative fluorescence with increased receptor activation. […]
Target sequence in this assay (P21453 whole entry): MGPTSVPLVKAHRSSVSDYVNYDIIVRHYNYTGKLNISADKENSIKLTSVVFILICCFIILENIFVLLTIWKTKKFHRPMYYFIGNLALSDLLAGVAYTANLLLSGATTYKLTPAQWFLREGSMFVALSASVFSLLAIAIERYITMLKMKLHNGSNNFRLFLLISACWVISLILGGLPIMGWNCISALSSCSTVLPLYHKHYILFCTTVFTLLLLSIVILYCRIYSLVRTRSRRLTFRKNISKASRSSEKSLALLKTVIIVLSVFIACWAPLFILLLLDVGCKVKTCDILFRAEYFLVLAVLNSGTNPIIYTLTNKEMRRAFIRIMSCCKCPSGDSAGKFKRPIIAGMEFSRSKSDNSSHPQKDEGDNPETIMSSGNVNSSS
Target sequence in this assay (P49407 whole entry partner): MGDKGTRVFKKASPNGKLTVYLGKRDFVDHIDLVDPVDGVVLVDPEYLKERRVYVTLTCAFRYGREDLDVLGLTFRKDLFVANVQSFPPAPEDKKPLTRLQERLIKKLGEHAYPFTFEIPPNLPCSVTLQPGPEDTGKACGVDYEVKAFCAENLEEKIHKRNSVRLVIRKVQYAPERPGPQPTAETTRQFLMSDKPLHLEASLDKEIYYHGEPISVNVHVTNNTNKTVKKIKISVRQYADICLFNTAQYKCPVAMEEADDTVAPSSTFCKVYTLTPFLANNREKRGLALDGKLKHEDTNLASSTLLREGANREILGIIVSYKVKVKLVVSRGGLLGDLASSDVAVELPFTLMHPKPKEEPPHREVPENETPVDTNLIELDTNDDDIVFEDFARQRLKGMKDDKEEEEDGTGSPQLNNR

For data set [3], the target named is T1, S1P1 receptor. The experiment in a line: Nanobit split luciferase assay, Gi-alpha coupling. It is filed as cell-based. Conditions: transfected 293A cells; 1000 nM-0.3 nM S1P. On the procedure:
as §1, §2, §3
Target sequence in this assay (P21453 whole entry): as the sequence (P21453 whole entry) above

The subject of data set [4] is HUVECs. The experiment in a line: Trans-endothelial electrical resistance (TEER). It is filed as cell-based, human. The conditions noted are these: 4 μg/well, 250 nM S1P, 6 hour time point. On the procedure: FIG. 4. Human and Mouse ApoM-Fc-S1P enhanced endothelial Barrier Protection. Human ApoMFc-S1P (4 μg/well, 250 nM S1P), Mouse ApoMFc-S1P (4 μg/well, 250 nM S1P), or BSA-S1P (250 nM S1P; Positive Control) were analyzed using transepithelial/transendothelial electrical resistance (TEER). The results of TEER analysis of HUVECs at the 6 hour time point are shown. BSA-S1P is the well-established activator of the S1PR1 and it was tested whether Human ApoMFc-S1P, Mouse ApoMFc-S1P gave equivalent induction of receptor activation. All results are normalized to individual well baselines (baseline=1), expressed as the mean of triplicate wells, and Standard Deviation (S.D.) is expressed as gray vertical bars over the course of the data set. […]
0.1 ml of Human Umbilical Vascular Endothelial Cells (HUVECS; 200,000 cells/ml in EGM-2 culture medium, Lonza) were seeded into a 96 well electrical conductance chamber (ECIS Cultureware; Applied Biophysics, Inc) pre-coated with 1% Fibronectin resuspended in Saline. After overnight incubation at 37° C./5% CO2, the 96-well plate was placed on the ECIS reader (Applied Biophysics; Ztheta 96-well array station) and baseline resistance was established which represents the quality of Endothelial junction strength or Endothelial barrier function. […]

B1: Free ApoM: free ApoM that is not associated with HDL; 26-kDa protein (protein, UniProt O95445 1-188, looked up)
Apolipoprotein M: MFHQIWAALLYFYGIILNSIYQCPEHSQLTTLGVDGKEFPEVHLGQWYFIAGAAPTKEELATFDPVDNIVFNMAAGSAPMQLHLRATIRMKDGLCVPRKWIYHLTEGSTDLRTEGRPDMKTELFSSSCPGGIMLNETGQGYQRFLLYNRSPHPPEKCVEEFKSLTSCLDSKAFLLTPRNQEACELSNN
As for B1, the half-life entry in data set [1] is reported as “extremely short”.

B2: Mouse ApoMFc-S1P: Mouse ApoM-mouse IgG1Fc fusion (mApoM-Fc) loaded with S1P (protein)
chain: NQCPEHSQLTALGMDDTETPEPHLGLWYFIAGAAPTTEELATFDPVDNIVFNMAAGSAPRQLQLRATIRTKSGVCVPRKWTYRLTEGKGNMELRTEGRPDMKTDLFSSSCPGGIMLKETGQGYQRFLLYNRSPHPPEKCVEEFKSLTSCLDFKAFLVTPRNQEACPLSSKWISSASSAKTTPPSVYPLAPGSAAQTNSMVTLGCLVKGYFPEPVTVTWNSGSLSSGVHTFPAVLQSDLYTLSSSVTVPSSTWPSETVTCNVAHPASSTKVDKKIVPRDCGCKPCICTVPEVSSVFIFPPKPKDVLTITLTPKVTCVVVDISKDDPEVQFSWFVDDVEVHTAQTQPREEQFNSTFRSVSELPIMHQDWLNGKEFKCRVNSAAFPAPIEKTISKTKGRPKAPQVYTIPPPKEQMAKDKVSLTCMITDFFPEDITVEWQWNGQPAENYKNTQPIMDTDGSYFVYSKLNVQKSNWEAGNTFTCSVLHEGLHNHHTEKSLSHSPGK
For B2, the “activation of beta-arrestin coupling to the S1P1 receptor” value in data set [2] was “equivalently activates”. In data set [3], the “activation of Gi-alpha coupling to the S1P1 receptor” value was “equivalently activates”. Further, the “endothelial barrier protection (TEER)” value in data set [4] is given as “enhance endothelial Barrier Protection”.
